Results from paper doi:10.1101/192484 (bioRxiv, 2018).
Like-named read-outs stand apart in the source and are kept apart here.

Assays:
SEC-MALS [1] = biological target: the molecule itself; assay: SEC-MALS
SEC-MALS [2] = biological target: the molecule itself; assay: SEC-MALS; remark: listed apart in the source

Protein	stoichiometry N (SEC-MALS [1])	stoichiometry N (SEC-MALS [2])
ATL3 22-442 WT (soluble domain: GTPase domain, linker and 3HB middle domain) (domain or fragment, human, UniProt Q6DD88 22-442, looked up) SKPGPVQVVLVQKDQHSFELDEKALASILLQDHIRDLDVVVVSVAGAFRKGKSFILDFMLRYLYSQKESGHSNWLGDPEEPLTGFSWRGGSDPETTGIQIWSEVFTVEKPGGKKVAVVLMDTQGAFDSQSTVKDCATIFALSTMTSSVQIYNLSQNIQEDDLQQLQLFTEYGRLAMDEIFQKPFQTLMFLVRDWSFPYEYSYGLQGGMAFLDKRLQVKEHQHEEIQNVRNHIHSCFSDVTCFLLPHPGLQVATSPDFDGKLKDIAGEFKEQLQALIPYVLNPSKLMEKEINGSKVTCRGLLEYFKAYIKIYQGEDLPHPKSMLQATAEANNLAAAASAKDIYYNNMEEVCGGEKPYLSPDILEEKHCEFKQLALDHFKKTKKMGGKDFSFRYQQELEEEIKELYENFCKHNGSKNVFSTFR	2	–
ATL3 22-442 Y192C (domain or fragment, human, UniProt Q6DD88 22-442, looked up) SKPGPVQVVLVQKDQHSFELDEKALASILLQDHIRDLDVVVVSVAGAFRKGKSFILDFMLRYLYSQKESGHSNWLGDPEEPLTGFSWRGGSDPETTGIQIWSEVFTVEKPGGKKVAVVLMDTQGAFDSQSTVKDCATIFALSTMTSSVQIYNLSQNIQEDDLQQLQLFTECGRLAMDEIFQKPFQTLMFLVRDWSFPYEYSYGLQGGMAFLDKRLQVKEHQHEEIQNVRNHIHSCFSDVTCFLLPHPGLQVATSPDFDGKLKDIAGEFKEQLQALIPYVLNPSKLMEKEINGSKVTCRGLLEYFKAYIKIYQGEDLPHPKSMLQATAEANNLAAAASAKDIYYNNMEEVCGGEKPYLSPDILEEKHCEFKQLALDHFKKTKKMGGKDFSFRYQQELEEEIKELYENFCKHNGSKNVFSTFR	2	–
ATL3 22-442 P338R (domain or fragment, human, UniProt Q6DD88 22-442, looked up) SKPGPVQVVLVQKDQHSFELDEKALASILLQDHIRDLDVVVVSVAGAFRKGKSFILDFMLRYLYSQKESGHSNWLGDPEEPLTGFSWRGGSDPETTGIQIWSEVFTVEKPGGKKVAVVLMDTQGAFDSQSTVKDCATIFALSTMTSSVQIYNLSQNIQEDDLQQLQLFTEYGRLAMDEIFQKPFQTLMFLVRDWSFPYEYSYGLQGGMAFLDKRLQVKEHQHEEIQNVRNHIHSCFSDVTCFLLPHPGLQVATSPDFDGKLKDIAGEFKEQLQALIPYVLNPSKLMEKEINGSKVTCRGLLEYFKAYIKIYQGEDLRHPKSMLQATAEANNLAAAASAKDIYYNNMEEVCGGEKPYLSPDILEEKHCEFKQLALDHFKKTKKMGGKDFSFRYQQELEEEIKELYENFCKHNGSKNVFSTFR	–	2
